B1: NANOBODY 10C4 (Nb_10C4) (VHH)
VHH: QVQLQESGGGSVQAGGFLRLSCAASGYTYSTCSMAWYRQAPGKERELVSSIRNDGSTAYADSVKGRFTISQDNAKNTVYLQMNSLKPEDTAMYYCNIRIGVGPGGTCSIYAPYWGEGTQVTVSS
notes: from the dromedary libraries; purified from pHEN6; not shown: C-terminal his6-tag (pHEN6)
B2: NANOBODY 4A2 (Nb_4A2) (VHH)
VHH: QVQLQESGGGLVQPGGSLRLSCAASGFTFETQYMTWVRQAPGKGPEYVSSINSGGTIKYYANSSVKGRFTISRDNAKNTLYLQMNNLRPEDTAIYYCQLGQWAGVGAASSRGQGTQVTVSS
notes: from the llama library; purified from pHEN6; not shown: C-terminal his6-tag (pHEN6)
B3: NANOBODY B9 (Nb_B9) (VHH)
VHH: DVQLQESGGGSVQAGGSLRLSCAASEYTYGYCSMGWYRQAPGKERELVSTITSDGSTSYVDSVKGRFTISQDNAKNTVYLQMNSLKPEDTAKYYCYTKTCANKLGAKFISWGQGTQVTVSS
notes: dromedary VHH; his-tagged from E. coli; HA-tagged periplasmic extract in the ELISA screen; also called VHH B9; not shown: C-terminal his6-tag (pHEN6)

Legend:
mouse BACE1 [1] = molecular target: T1, mouse BACE1 (mouse, UniProt P56818 46-457, limits assumed); test: SPR (Biacore), pH 7.0
mouse BACE1 [2] = molecular target: T1, mouse BACE1; test: SPR (Biacore), pH 4.5
[3] = molecular target: recombinant BACE1 of the cell-free enzymatic assays (FRET assay, MBP-ELISA) (human, UniProt P56817 46-460, limits assumed); test: cell-based or functional assay
human BACE1 ectodomain [4] = molecular target: T2, human BACE1 ectodomain (human, UniProt P56817 22-457); test: SPR (Biacore), pH 4.5
T2 construct: extracellular domain; also called the ectodomain of human BACE1

human BACE1 ectodomain [5] = molecular target: T2, human BACE1 ectodomain; test: SPR (Biacore), pH 7.0
[6] = molecular target: BACE1 of primary cultured mouse neurons (mouse, UniProt P56818 46-501); test: cell-based or functional assay
BACE1 of primary cultured mouse neurons, sequence (P56818 46-501): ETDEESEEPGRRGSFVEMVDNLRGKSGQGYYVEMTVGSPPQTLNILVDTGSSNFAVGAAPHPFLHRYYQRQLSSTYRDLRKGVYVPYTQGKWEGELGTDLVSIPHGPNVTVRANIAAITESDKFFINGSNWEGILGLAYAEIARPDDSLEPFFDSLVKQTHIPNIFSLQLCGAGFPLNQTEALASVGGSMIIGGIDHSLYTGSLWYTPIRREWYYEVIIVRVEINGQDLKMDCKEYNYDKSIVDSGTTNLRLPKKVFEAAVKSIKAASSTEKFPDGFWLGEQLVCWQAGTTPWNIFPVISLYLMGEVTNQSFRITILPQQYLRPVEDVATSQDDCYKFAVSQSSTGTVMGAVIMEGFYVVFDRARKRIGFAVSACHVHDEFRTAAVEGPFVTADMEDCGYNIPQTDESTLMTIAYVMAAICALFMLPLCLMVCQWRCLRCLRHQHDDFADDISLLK

recombinant BACE1 of the cell-free enzymatic assays (FRET assay, MBP-ELISA), sequence (P56817 46-460 limits assumed): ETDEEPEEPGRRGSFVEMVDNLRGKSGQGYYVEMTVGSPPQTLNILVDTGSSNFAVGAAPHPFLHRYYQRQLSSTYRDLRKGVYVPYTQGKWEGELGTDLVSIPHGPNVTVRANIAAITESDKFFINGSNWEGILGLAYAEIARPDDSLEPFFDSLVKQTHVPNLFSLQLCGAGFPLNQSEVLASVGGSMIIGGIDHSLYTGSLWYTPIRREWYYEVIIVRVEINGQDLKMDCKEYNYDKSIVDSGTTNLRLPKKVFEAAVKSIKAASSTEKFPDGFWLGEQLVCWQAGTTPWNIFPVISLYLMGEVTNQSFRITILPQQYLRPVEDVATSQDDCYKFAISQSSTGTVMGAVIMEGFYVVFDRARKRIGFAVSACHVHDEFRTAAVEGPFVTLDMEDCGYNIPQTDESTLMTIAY
T1 sequence (P56818 46-457 limits assumed): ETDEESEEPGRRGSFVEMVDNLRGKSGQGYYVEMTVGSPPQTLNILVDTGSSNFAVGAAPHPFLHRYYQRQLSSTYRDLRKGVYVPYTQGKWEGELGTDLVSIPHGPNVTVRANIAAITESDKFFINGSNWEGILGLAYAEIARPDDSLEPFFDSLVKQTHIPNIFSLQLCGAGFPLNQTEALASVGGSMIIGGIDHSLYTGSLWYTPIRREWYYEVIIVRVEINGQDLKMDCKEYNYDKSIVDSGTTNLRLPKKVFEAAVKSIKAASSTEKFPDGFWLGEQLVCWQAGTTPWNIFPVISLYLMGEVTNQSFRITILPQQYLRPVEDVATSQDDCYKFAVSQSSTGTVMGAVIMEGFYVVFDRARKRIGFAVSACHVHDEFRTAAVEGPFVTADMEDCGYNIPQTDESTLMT
T2 sequence (P56817 22-457): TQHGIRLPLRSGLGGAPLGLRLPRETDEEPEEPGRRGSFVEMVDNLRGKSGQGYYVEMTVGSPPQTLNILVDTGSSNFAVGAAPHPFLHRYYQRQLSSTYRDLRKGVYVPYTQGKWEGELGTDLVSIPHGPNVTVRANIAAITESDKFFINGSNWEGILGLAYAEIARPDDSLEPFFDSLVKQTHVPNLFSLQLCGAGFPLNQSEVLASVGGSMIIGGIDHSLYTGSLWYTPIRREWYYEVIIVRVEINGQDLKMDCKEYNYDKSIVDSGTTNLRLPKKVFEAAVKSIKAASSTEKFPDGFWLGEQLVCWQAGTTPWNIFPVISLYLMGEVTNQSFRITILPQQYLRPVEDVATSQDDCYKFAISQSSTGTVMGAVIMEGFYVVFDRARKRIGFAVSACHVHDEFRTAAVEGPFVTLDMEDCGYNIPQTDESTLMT

Row | Binder | Kd (mouse BACE1 [1]) | koff (mouse BACE1 [1]) | kon (mouse BACE1 [1]) | Kd (mouse BACE1 [2]) | koff (mouse BACE1 [2]) | kon (mouse BACE1 [2]) | IC50, FRET assay dose-response [3] | Kd (human BACE1 ectodomain [4]) | koff (human BACE1 ectodomain [4]) | kon (human BACE1 ectodomain [4]) | Kd (human BACE1 ectodomain [5]) | koff (human BACE1 ectodomain [5]) | kon (human BACE1 ectodomain [5]) | IC50 (CTFβ level) in the neuron assay [6] | EC50, FRET assay dose-response [3]
1 | B1 | 41.9 nM | 0.00797 s⁻¹ | 190000 M⁻¹ s⁻¹ | 10 nM | 0.00988 s⁻¹ | 984000 M⁻¹ s⁻¹ | 150 nM | 27.7 nM | 0.0125 s⁻¹ | 451000 M⁻¹ s⁻¹ | 74.7 nM | 0.00792 s⁻¹ | 106000 M⁻¹ s⁻¹ |  | 
2 | B2 | 35.2 nM | 0.00581 s⁻¹ | 165000 M⁻¹ s⁻¹ | 8.61 nM | 0.00216 s⁻¹ | 251000 M⁻¹ s⁻¹ | 1200 nM | 21.2 nM | 0.00841 s⁻¹ | 397000 M⁻¹ s⁻¹ | 48.2 nM | 0.0231 s⁻¹ | 479000 M⁻¹ s⁻¹ |  | 
3 | B3 | 1.77 nM | 0.00089 s⁻¹ | 502000 M⁻¹ s⁻¹ | 1.11 nM | 0.00118 s⁻¹ | 1.06e+06 M⁻¹ s⁻¹ |  | 1.96 nM | 0.0013 s⁻¹ | 662000 M⁻¹ s⁻¹ | 3.67 nM | 0.00098 s⁻¹ | 267000 M⁻¹ s⁻¹ | ~500 nM | 4.1 nM
